{"source": "patent US20100159011A1", "about": "“Compositions For Biomedical Applications” (University of Massachusetts Medical School, priority 2007, published 2010)", "tested_on": "murine macrophage RAW264.7 cells", "assay": "Osteoclastic differentiation of RAW264.7 cells (TRAP stain)", "assay_type": "cell-based", "conditions": "for osteoclast differentiation of RAW264.7 (TRAP): no graft carrier", "experimental": "Grafts (5×5×1 mm, FlexBone 25% HA-25% TCP) were pre-absorbed with varying amounts of growth factors and cytokines to provide an exogenous supply for remodeling. […] The preferred loading dose of RANKL (10 ng/FlexBone graft) was determined by the osteoclastic differentiation of macrophage RAW264.7, induced by the RANKL released from the graft as indicated by positive TRAP stains (purple) of multinucleated cells on Day 6. […] Finally, the preferred loading dose of rhVEGF165 in stimulating the proliferation of human vascular endothelial cells in culture was determined to be 5 ng/graft.\nOsteoclastic differentiation of murine macrophage RAW264.7 cells induced by the rmRANKL released from FlexBone. The bioactivity of the exogenous rmRANKL released from FlexBone is evaluated by its ability to induce osteoclastic differentiation of murine macrophage RAW264.7 cells six days after placing the FlexBone graft pre-loaded with rnRANKL in the RAW264.7 culture. RAW264.7 cells were seeded at 10,000/cm^2 in a 24-well plate in alpha-MEM (0.5 mL/well) supplemented with 10% FBS and 1% Pen-Strep, and allowed to attach overnight. One FlexBone or pHEMA graft freshly loaded with 10-ng rmRANKL was then added to each well (N=3 for each combination) on day one, and the culture was continued for 6 days with media change every two days without additional supplement of rmRANKL. In the positive control well, 10 ng rmRANKL was supplemented directly in the culture media without a graft carrier every two days. In the negative control well, 10 ng rmRANKL was supplemented directly in the culture media without a graft carrier on day one, and the medium was changed every two days without any additional supplement of rmRANKL. […] Grafts were removed from all wells before the cells were stained for tartrate-resistant acid phosphatase (TRAP) activities using the Sigma TRAP kit following the manufacturer's instructions."}
{"molecule": "rmRANKL: recombinant receptor activator of nuclear factor κ ligand, purchased from R&D Systems (protein, UniProt O35235 139-316, looked up) Tumor necrosis factor ligand …: FSGAPAMMEGSWLDVAQRGKPEAQPFAHLTINAASIPSGSHKVTLSSWYHDRGWAKISNMTLSNGKLRVNQDGFYYLYANICFRHHETSGSVPTDYLQLMVYVVKTSIKIPSSHNLMKGGSTKNWSGNSEFHFYSINVGGFFKLRAGEEISIQVSNPSLLDPDQDATYFGAFKVQDID", "values": [{"measurement": "osteoclast differentiation of RAW264.7 (TRAP)", "setting": "continued supplement of 10-ng every other day, day six", "result": "led to the formation of TRAP-positive multinucleated osteoclasts by day six"}, {"measurement": "preferred loading dose", "setting": "determined by osteoclastic differentiation of RAW264.7, TRAP stains on Day 6", "result": 10, "unit": "ng/FlexBone graft"}, {"measurement": "supplement needed every other day to induce differentiation", "setting": "no graft control", "result": 5, "unit": "ng"}, {"measurement": "osteoclast differentiation of RAW264.7 (TRAP)", "setting": "single supplement of 10-ng directly to the culture", "result": "not sufficient in inducing the osteoclast differentiation"}]}
